Measurements as given in the DeepSol protein solubility set.

Experiment: soluble on expression in E. coli; label from the status in PepcDB or PDB records

Sequence	soluble on expression in E. coli
MKIVILAPTITPIVSYGGLGDVMRDLPKFLKKGNEVVVLTLNHYNRYFTLPYEDIKKITVIYKGAKITFDVLRTKHPTTGVDLIVFSNESVNNLNVWDPIKYEIFADLVITYLDEVKDIDVVSGHDWMCGLAIAKCNDILDLPTTLTIHNEAFKGEMIEYKGEVMTFLELGIKYADAVNTVSPSHAEEIKNYPYIKKYLNNKPFCGILNGIDIDEYDPMKIIERMCNLSNNKLDPRNYAYISPYSAEDSHNIKPKIKYSWFYRGGVYEYVEDWNKIDKGISATDVEVHGGVDGDIETPLIGFVGRATHQKGFNTMFEAIPELLEKHDIRFVFLTKGDRDIEERLKNLANEHDGRILALIGYSLPLSSLVFAGSDWIIMPSYWEPCGLVQMEAMAYCTPVIATETGGLKDTIIPLHPNPYEHPNFDKATGVLFKVPDKVGFMWGVEHALNWTFYKLNEICMFMQYIRYKCPKHPYDENSPLSMMMKNCYYHVFRNLSWQNSPSIRKYKGLFGGAIYNHYLQP	soluble
MKKAKLGKSDLQVFPIGLGTNAVGGHNLYPNLNEETGKELVREAIRNGVTMLDTAYIYGIGRSEELIGEVLREFNREDVVIATKAAHRKQGNDFVFDNSPDFLKKSVDESLKRLNTDYIDLFYIHFPDEHTPKDEAVNALNEMKKAGKIRSIGVSNFSLEQLKEANKDGLVDVLQGEYNLLNREAEKTFFPYTKEHNISFIPYFPLVSGLLAGKYTEDTTFPEGDLRNEQEHFKGERFKENIRKVNKLAPIAEKHNVDIPHIVLAWYLARPEIDILIPGAKRADQLIDNIKTADVTLSQEDISFIDKLFAPG	soluble
MKKAVVVFSGGQDSTTCLVQALKEFDEVHAITFDYGQRHKLEIEVAQQLAKQLGVTAHKVMDVSLLNELAISSLTRDDIPVSHELQANGLPNSFVPGRNILFLTLAGIYAYQIGATTVITGVCETDFSGYPDCRDEFVQAMNQALAKGMDLPLMIRTPLMWLNKAETWALADQLGALDLVRHQTLTCYNGLIGDGCGECPACGLRQAGLKAYLDNRDLIMSALKSKQSAAH	not soluble
MKKAYLVWGMAALLSLGVAQQAGGLTLEGVEALRQEARKAYPVGFVDLAPWKRALEAAEALAKQNPNDLRALRLLAEIYTETQWAIRAWEAWMNYREKGGTWDEAARQAAAKVARTLAFYANQRGDRAEAERWAAQAQAVEAGQ	soluble
MKKCRICGKKAIIYMPHHRLALCREHFVEWFEKYTERTIKEFKMFTKKDKVLVAISGGKDSLALWHVLRKLGYEADGLYINLGIGEYSEKSKEKVLKFAEKINGKAIIVDLKEELAGIPELVKITSREACSVCGLVKRYNFNKVAKEHGYNVIATGHNLDDEASALLANVLNWNEKYLGRKYPVLEEEAGFVRKVKPFCKFTEKETALYALLNGIDFIEEECPFSEDATSVFYKKILNEIEERSPGTKLRFYLDYLRKIYPKFRKEEEKKELQPCKVCGEPTVGEICPVCRLREKVEASSG	soluble
MKKFSSLFRSFMHFQLTLVKPLTRRSRPIELGRLNCTEPVSSNFGFERGRPIDRYYINIFLSQNTNDVRGRVLEISDNGYTKRLGGKKVKQSDVLHAVEGNPKATIVSDITKADNIPSDSFDCIILTQTLQFIYDTKSAVRHLHRILKPNGVLLATMSGISQISRYDMDHWGEYWRFTTASAKQLFEEEFLPENIEVKAYGNVLSSTAFLYGLAVEDLKTEQLDYHDPNYQMLVTVRAVKADKQLEHHHHHH	not soluble
MKKIALTLAATSITLVSYSAFSAQDAEHVRLATTTSTYHSGLLDYLLPQFEKDTGYKVDVIAAGTGKALKMGENGDVDLVMTHAPKAEGTFVEKGYGVLPRKLMYNDFVIVGPKADPAKIKDDESVLDVFKEIANKNATFISRGDDSGTHKKEMGFWAQTKIEPNFGGYRSVGQGMGPTLNMASEMQGYTMSDRGTWLAYQNKLDLEILFQGDEKLFNPYQVILVNPERYPTINYQGAKAFSDWLVNPRGQELINGFRLNGKQLFVANAESK	not soluble
MKKIATATIATAGIATFAFAHHDAQAAEQNNDGYNPNDPYSYSYTYTIDAEGNYHYTWKGNWSPDRVNTSYNYNNYNNYNYYGYNNYSNYNNYSNYNNYNNYQSNNTQSQRTTQPTGGLGASYSTSSSNVHVTTTSAPSSNGVSLSNARSASGNLYTSGQCTYYVFDRVGGKIGSTWGNANNWANAAARSGYTVNNSPAKGAILQTSQGAYGHVAYVEGVNSNGSIRVSEMNYGHGAGVVTSRTISASQAASYNYIHLEHHHHHH	not soluble
MKKIKALALFSGGLDSLLSMKLLIDQGIEVTALHFNIGFGGNKDKREYFENATAQIGAKLLVCDIREQFFNDVLFKPKYGYGKYFNPCIDCHANMFRNAFYKMLELNADFVLSGEVLGQRPKSQRKEALNQVRKLVREVGEEARFDPVLDRTQAGGKKPQFLDELLLRPMSAKLLEPTFMEKKGFVDREKLLDVSGRGRSRQLQMIKDYGLKYYEKPGGGCLLTDIQVSNKIKNLKEYREMVFEDSVIVKNGRYFVLPHNARLVVARNEEENHKLDIQHPLMDKIELLNCKGPLSLVDKNASKEDKELAGRIALGYAKTLKNQAYLIQIGDEKRELYPLDKENAREYLFALEHHHHHH	soluble
MKKILFICLGNICRSPMAEFIMKDLVKKANLEKEFFINSAGTSGEHDGEGMHYGTKNKLAQLNIEHKNFTSKKLTQKLCDESDFLITMDNSNFKNVLKNFTNTQNKVLKITDFSPSLNYDEVPDPWYSGNFDETYKILSLACKNLLVFLSKHHHHH	soluble
MKKILIVDDEKPISDIIKFNMTKEGYEVVTAFNGREALEQFEAEQPDIIILDLMLPEIDGLEVAKTIRKTSSVPILMLSAKDSEFDKVIGLELGADDYVTKPFSNRELQARVKALLRRSQ	soluble
MKKIYKVLYPVGFQIFEVQDDYVVALPFVEEKPLENLVNEQSQFFNFSEQKWEEAVTQDYTKKLNLLENLANGLEVSNSELKQANEKLTAKAESLAQINSKTMLTSLQNTREIDAIKEQIGGAK	not soluble
MKKLAVKALLFIMGTMLYSAPTYEYRRELREGARGKWTNLRQHLNSGTRLEKELTKVDKQIDKKVNEIQEIEDLLFRIEQYKAANNIR	not soluble
MKKLIIIPAYNESSNIVNTIRTIESDAPDFDYIIIDDCSTDNTLAICQKQGFNVISLPINLGIGGAVQTGYRYAQRCGYDVAVQVDGDGQHNPCYLEKMVEVLVQSSVNMVIGSRFITKEGFQSSFARRIGIKYFTWLIALLTGKKITDATSGLRLIDRSLIERFANHYPDDYPEPETVVDVLVSHFKVKEIPVVMNERQGGVSSISLTKSVYYMIKVTLAILVVRLKGNR	not soluble
MKKLVTATTLTAGIGAAIVGLDHGNEADAAEQTQPTNQSTTQSTSGSSANLYTAGQCTWYVYDKVGGNIGSTWGNANNWASAASSAGYTVNNSPEAGSILQSTAGGYGHVAYVENVNSDGSVEVSEMNYNGGPFSVSERTISAGEASSYNYIHLNLEHHHHHH	soluble
MKKQPGQQPLRSLSLTSAAKSLEEVEPEDDSKKGEPHAKAAGFGRGGGGGKRLPAARSTPMVIPNQVAAMPVQMTGFVQLATNNILSAIAHTNSLMVVQCIEPLEIFTGFETPNRYVVHDMYCRPLLYCMERSNVFARQYHGNNRKLSASTLDSCRRCSPMRTLTLFTFQWTCRQS	soluble
MKKRLLLSTFLASTLILTGCASDQSDNEDHHTSTGIHAPKSAKKLETKDIFNSDKKNSDISDAEMKQAIEKYLSVNSDILDNKYIMQHKLDKQIDSQTKVTEKQAETLSHLSNLAVKNDLHFKKFVTENNIPKEYKKPVELMMNYFKALNSTIANVDEDIEKLSYQPQNKINVVDVPTKYAGDVNKKQQDKIKDFLKSKGIKSDVIDK	not soluble
MKKRNSMKLASLTVLLAGTTLFTPGFTVKAESTQSISNSSKVHDQKNRNGWKQVMQETIKIGAPGVLAKTSNKGKISSYTAGVADLSTKKPVKSDYRFRIGSVTKTFTATTVLQLVGENRVQLDDSIEKWLPGLIQGNGYDGNQITIRQLLNHTSGIAEYLKSKDADIMNSKKTYTAEEIVKIGLALPSDFSPGKGWSYSNTGYVILGMLIEKITGNSYAEEIEKRIIEPLDLPNTFLPGNSPVIPGKNHARGYVKMEETGELKDITYYNPSLANAAGDMISNADDLNKFFSSLLGGKLLKERELKEMLTTVPIEGKGIGDGYGLGIYETKLPNGVSVWGHGGSIPGFMTFAGGVIGGKHTFAVNVNSLGPVDILTQFDKMMQVEFNK	not soluble
MKKTLALAATAAVLMLSACSSGFGGEKEEEITQKTAKSSEKAIVPKYNISDSYYKMVLPFKAGKARGLTTEQLNTRLDIDEFETGLMRLAQDSFSTDDYLFQEGQYLDEDTVLSWLARKKTGSDLKKAEKEDKNFKNEGLNPALPSSGSTEEKNESSPIYLASMLEHDYLVRKDKNSIQLGGVMIGLALNSVYYYREKTGDPQKEVEIKDSTLRQQGEKIAQEVINRLRKKDNLKNVPITVALYKQASKTSIVPGNFIAKTEVKAGSTDISNWDDINEKYVFYPADTTTAEKYPDDTEVFKRFKNSIEEYFPNYTGVVGTALYENDEMKKMKIDIPMQFYGKSEVVAFTQFLTGEVMDYYSKSSVDVEVNITSSDGQEAVIIRNAGDKEPTVHIYD	not soluble
MKKTRTANLHHLYHEALPEDVKLTPRVEVDNVHQRRTTDVYEHALTITAWQQIYDQLHPGKFHGEFTEILLDEIQVFREYTGLALRQSCLVWPNSFWFGIPATRGEQGFIGAQGLGSAEIATRPGGTEFELSTPDDYTILGVVISEDVISRQATFLHNPERVLHMLRNQLALEVKEQHKAALWGFVQQALATFSESPETLHQPAVRKVLSDNLLLAMGTMLEEAKPIHSAESISHQGYRRLLSRAREYVLENMSEPLTVLDLCNQLHVSRRTLQNAFHAILGIGPNAWLKRIRLNAVRRELISPWSQSATVKDAAMQWGFWHLGQFATDYQQLFAEKPSLTLHQRMRQWA	not soluble
MKKVIAGLAAASVAGVAVPGMDSAHAQVSNEALKEINGQTQTQTQTQTTVTETKTVETTSELKYTVTADVLNVRSGAGTGHNVISKVKSGQVLQVVGQENGWFKVNVNGQTGYVSGDFVTTGGKTGTTVQQGTGTYTVNVSSLNVRTGPSTSHTVLGSVNKGKTVQVVGEVQDWFKINFNGGTGYVSKDFVTKGGSAVSNETQQPTTNNNTTTVQTGGSYVVNTGALKVRTGPATYNAVIGGVTNGKVLNVTGAENGWYKINHNGRTGYVSADFVKFVKGGVNNVTNNNNVTNNVQQPGKDVQKPTTGGDTSSIAGFARSLNGSPYRTAGTTPAGFDCSGFIHYVLNQTGHKGARQTVAGYWSSKTKTSNPQPGDLVYFQNTYKSGPSHMGVYLGNGQFISAETDATGVRISSVSNSYWSKHLLGYTKAYLEHHHHHH	soluble
MKKVLIAALIAGFSLSATAAQTIRFATEASYPPFESMDANNKIVGFDVDLANALCKEIDASCTFTNQAFDSLIPSLKFRRFDAVMAGMDITPEREKQVLFTTPYYDNSALFVGQQGKYTSVDQLKGKKVGVQNGTTHQKFIMDKHPEITTVPYDSYQNAKLDLQNGRIDAVFGDTAVVTEWLKANPKLAPVGDKVTDKDYFGTGLGIAVRQGNTELQQKFNTALEKVKKDGTYETIYNKWFQK	not soluble
MKKVLILSTSTGYGHNQAANSLMELIKNDDTEILVHDFLKENRFFDRSIVNGYDLCASSLGTLYGLLYKISNIKFINNLVSFLFLPVANKLAKFIHSFNPDLIITTHPLAVSILSYLKKRQIIKVPVISVVTDFKCHYTYVSKIIDHYIVACDFTKENLASKGIPKERISPFGIPVKQDFYKEDYHNYVENIIQSPLNILLMGGGMGLDNISKVLKTLIKNENPLNLTIVCGNNAELKEDLCKEYGHIKGNKKLNILGYTTEIPKIMKSSDLIITKPGGLTTTESLLSHLPMIIPFIIPGQESENREFLSKSNCAITINHLEELNKVINDLNKDNNKLINMRKSILDVLSSYSPEGTIKLCTKMLNDSYNKRRYLEHHHHHH	soluble
